Results reported in patent EP4786493A1 (Nanjing Probio Biotech Co., Ltd., dated 2026).

Experiments:
[1] = biological target: T1, recombinant human Claudin 18.2 protein (GenScript, Z03504) (human, UniProt P56856-2 1-261, limits assumed); assay: indirect ELISA, plate coated with recombinant human Claudin 18.2, anti-human IgG Fc-HRP detection
T1 construct: Bought recombinant protein

[2] = biological target: T2, human Claudin 18.2 expressed on cells (HEK293/human Claudin 18.2; CHO-K1/human Claudin 18.2) (human, UniProt P56856-2 1-261); assay: cell-based or functional assay
[3] = biological target: T2, human Claudin 18.2 expressed on cells …; assay: cell-based or functional assay; remark: listed apart in the source
[4] = biological target: T1, recombinant human Claudin 18.2 protein …; assay: SPR Biacore 8K, antibody captured via Fc, human Claudin 18.2 protein as analyte
[5] = biological target: T2, human Claudin 18.2 expressed on cells …; assay: flow cytometry on HEK293 cells expressing human Claudin 18.2
[6] = biological target: T1, recombinant human Claudin 18.2 protein …; assay: competition ELISA on coated recombinant human Claudin 18.2; competitor biotinylated IMAB362 (0.72 µg/ml)

B1: AHP29153 (antibody, V domains shown)
VH: QLQQVESGGGLVQPGGSLRLSCAASRNIGILSTMGWYRQAPGKQRELVATITRGGSTNYGEFVKGRFTISRDNAKNTVYLQMNSLKPEDTAVYYCNVDESWLGTQSYWGRGTTVTVSS
VL: QSVLTQPASVSGSPGQSITISCTGTSSDVGGYKYVSWYQQPPGKAPKLIIYEVTKRPSGVPDRFSGSKSGNTASLTVSGLQAEDEADYYCLSYAGSNNVFGTGTKLTVL
EC50 [1]: 0.125 nM | ADCC reporter gene assay (CHO-K1/Claudin 18.2 target cells, GS-J2C/CD16A 158V effector cells): EC50 [2]: 0.805 nM | ADCC reporter gene assay (CHO-K1/Claudin 18.2 target cells, GS-J2C/CD16A 158V effector cells): Top [2]: 283000 | CDC on CHO-K1/human Claudin 18.2 cells: Top [3]: 96.3% | Kd [4]: 9.96 nM | EC50 [5]: 8.15 nM | IC50 [6]: 0.323 nM

B2: AHP31548 (antibody, V domains shown)
VH: QVQLMQSGGGLVQPGGSLRLSCAASRNIGILSTMGWYRQAPGKQRELVATITRGGSTNYGEFVKGRFTISRDNAKNTVYLQMNSLKPEDTAVYYCNVDESWLGTQSYWGRGTTVTVSS
VL: QSALTQPPSASGSPGQSVTISCTGTSSDIGTYNFVSWYQQHPGKAPKLIIYEVSKRPSGVPDRFSGSKSGNTASLTVSGLQAEDEADYYCKSYPRVFGTGTKLTAL
EC50 [1]: 0.074 nM | ADCC reporter gene assay (CHO-K1/Claudin 18.2 target cells, GS-J2C/CD16A 158V effector cells): EC50 [2]: 2.15 nM | ADCC reporter gene assay (CHO-K1/Claudin 18.2 target cells, GS-J2C/CD16A 158V effector cells): Top [2]: 463000 | CDC on CHO-K1/human Claudin 18.2 cells: Top [3]: 94% | Kd [4]: 7.31 nM | EC50 [5]: 3.08 nM | IC50 [6]: 0.265 nM

B3: AHP32913 (antibody, V domains shown)
VH: QVQLMQSGGGLVQPGGSLRLSCAASRNIGILSTMGWYRQAPGKQRELVATITRGGSTNYGEFVKGRFTISRDNAKNTVYLQMNSLKPEDTAVYYCNVDESWLGTQSYWGRGTQVTVSS
VL: QAVVTQEPSLTVSPGGTVTLTCGSSTGPVTSGHYPHWYQQKPGQAPKTLIFDTSHKHPWTPAQFSGSLLGGKAALTLSGAHPEDEAEYYCLLSYSGVRVFGGGTQLIIL
EC50 [1]: 0.111 nM | ADCC reporter gene assay (CHO-K1/Claudin 18.2 target cells, GS-J2C/CD16A 158V effector cells): EC50 [2]: 8.12 nM | ADCC reporter gene assay (CHO-K1/Claudin 18.2 target cells, GS-J2C/CD16A 158V effector cells): Top [2]: 486000 | CDC on CHO-K1/human Claudin 18.2 cells: Top [3]: 93% | Kd [4]: 9.44 nM | EC50 [5]: 4.16 nM | IC50 [6]: 0.337 nM

B4: AHP32919 (antibody, V domains shown)
VH: QVQLQESGGGVVQPGGSLRLSCAASQSIGLLSTMGWYRQAAGKQRELVATITRGGSTNYGEFVKGRFTISRDNAKNTVYLQMNSLKPEDTAVYYCTADESWLGTQSYWGRGTRVTVSS
VL: QAGLTQPPSASGTPGQGVTISCSGSSSNIGSNSVNWYQQLPGTAPKLLMHSNNERSSGVPDRFSGSKSGSSASLAISGLQSEDAADYFCGAWDDSLNGYVFGTGTKLTVL
EC50 [1]: 0.0788 nM | ADCC reporter gene assay (CHO-K1/Claudin 18.2 target cells, GS-J2C/CD16A 158V effector cells): EC50 [2]: ~0.439 nM | ADCC reporter gene assay (CHO-K1/Claudin 18.2 target cells, GS-J2C/CD16A 158V effector cells): Top [2]: 199000 | CDC on CHO-K1/human Claudin 18.2 cells: Top [3]: 96.3% | Kd [4]: 7.91 nM | EC50 [5]: 6.04 nM | IC50 [6]: 0.271 nM

B5: AHP33029 (antibody, V domains shown)
VH: QVQLVDSGGGLVQSGGSLRLTCAASQSIGLLSTMGWYRQAAGKQRELVATITRGGSTNYGEFVKGRFTISRDNAKNTVYLQMNSLKPEDTAVYYCTADESWLGTQSYWGRGTLVTVSS
VL: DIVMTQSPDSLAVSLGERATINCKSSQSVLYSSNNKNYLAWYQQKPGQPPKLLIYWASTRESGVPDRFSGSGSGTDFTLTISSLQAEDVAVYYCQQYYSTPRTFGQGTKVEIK
EC50 [1]: 0.0746 nM | ADCC reporter gene assay (CHO-K1/Claudin 18.2 target cells, GS-J2C/CD16A 158V effector cells): EC50 [2]: 3.73 nM | ADCC reporter gene assay (CHO-K1/Claudin 18.2 target cells, GS-J2C/CD16A 158V effector cells): Top [2]: 358000 | CDC on CHO-K1/human Claudin 18.2 cells: Top [3]: 96.9% | Kd [4]: 10.2 nM | EC50 [5]: 4.24 nM | IC50 [6]: 0.319 nM

B6: AHP33007 (antibody, V domains shown)
VH: QVQLVQSGGGLVQPGGSLRLSCAASRNIGILSTMGWYRQAPGKQRELVATITRGGSTNYGEFVKGRFTISRDNAKNTVYLQMNSLKPEDTAVYYCNVDESWLGTQSYWGRGPLVTVSS
VL: not shown
EC50 [1]: 0.139 nM | ADCC reporter gene assay (CHO-K1/Claudin 18.2 target cells, GS-J2C/CD16A 158V effector cells): EC50 [2]: 1.84 nM | ADCC reporter gene assay (CHO-K1/Claudin 18.2 target cells, GS-J2C/CD16A 158V effector cells): Top [2]: 295000 | CDC on CHO-K1/human Claudin 18.2 cells: Top [3]: 92.7% | Kd [4]: 2.7 nM | EC50 [5]: 12.4 nM | IC50 [6]: 0.805 nM

B7: AHP32982 (antibody, V domains shown)
VH: QVQLVQSGGGLVQPGGSLRLSCAASRNIGILSTMGWYRQAPGKQRELVATITRGGSTNYGEFVKGRFTISRDNAKNTVYLQMNSLKPEDTAVYYCNVDESWLGTQSYWGRGPLVTVSS
VL: DIVMTQSPSSVSASVGDRVTITCRASQGISSWLAWYQQKPGKAPKLLIYAASSLQSGVPSRFSGSGSGTDFTLTISSLQPEDFATYYCQQANSFPLTFGGGTKVEIK
EC50 [1]: 0.119 nM | ADCC reporter gene assay (CHO-K1/Claudin 18.2 target cells, GS-J2C/CD16A 158V effector cells): EC50 [2]: 0.379 nM | ADCC reporter gene assay (CHO-K1/Claudin 18.2 target cells, GS-J2C/CD16A 158V effector cells): Top [2]: 216000 | CDC on CHO-K1/human Claudin 18.2 cells: Top [3]: 95.5% | Kd [4]: 13.3 nM | EC50 [5]: 5.91 nM | IC50 [6]: 0.491 nM

B8: AHP30826 (antibody, V domains shown)
VH: QVQLQQSGGGSVQAGGSLRLSCAASGTILSINAMGWYRQAPGKQRELVATITTGGNANYAHSVKGRFTISRDNAKNTVYLQMNNLKPEDTAVYYCNAEQVVVGFLQAYDVWGQGTTVTVSS
VL: DVVMTQSPLSLPVTLGQAASISCRSSQSLVHGDGNTYLNWIQQRPGQSPRRLIYKVSNRDSGVPDRFSGSGSGTDFTLKISRVEAEDVGVYYCMQGTHWPSTFGPGTKVDIK
EC50 [1]: 0.0914 nM | ADCC reporter gene assay (CHO-K1/Claudin 18.2 target cells, GS-J2C/CD16A 158V effector cells): EC50 [2]: 0.684 nM | ADCC reporter gene assay (CHO-K1/Claudin 18.2 target cells, GS-J2C/CD16A 158V effector cells): Top [2]: 222000 | CDC on CHO-K1/human Claudin 18.2 cells: Top [3]: 96% | Kd [4]: 7.82 nM | EC50 [5]: 3.54 nM | IC50 [6]: 0.276 nM
